{"source": "patent US20040093164A1", "about": "“Computer system and methods for producing morphogen analogs of human TDF-1” (priority 2002, published 2004)", "molecules": {"B1": {"name": "Ala 63->Ser 63 mutein: hTDF-1 with the alanine at position 63 mutated to a serine (protein, UniProt P18075 293-431, looked up, variant A63S)", "Bone morphogenetic protein 7": "STGSKQRSQNRSKTPKNQEALRMANVAENSSSDQRQACKKHELYVSFRDLGWQDWIIAPEGYSAYYCEGECAFPLNSYMNATNHAIVQTLVHFINPETVPKPCCAPTQLNAISVLYFDDSSNVILKKYRNMVVRACGCH"}}, "key": {"ROS cells": {"tested_on": "ROS cells", "assay": "effect of alpha-2 macroglobulin on TDF-1 stimulated alkaline phosphatase activity in a ROS cell assay", "type": "cell-based"}, "alpha-2 macroglobulin [1]": {"target": "T1, alpha-2 macroglobulin (Homo sapiens, UniProt P01023)", "T1 sequence (P01023 24-1474)": "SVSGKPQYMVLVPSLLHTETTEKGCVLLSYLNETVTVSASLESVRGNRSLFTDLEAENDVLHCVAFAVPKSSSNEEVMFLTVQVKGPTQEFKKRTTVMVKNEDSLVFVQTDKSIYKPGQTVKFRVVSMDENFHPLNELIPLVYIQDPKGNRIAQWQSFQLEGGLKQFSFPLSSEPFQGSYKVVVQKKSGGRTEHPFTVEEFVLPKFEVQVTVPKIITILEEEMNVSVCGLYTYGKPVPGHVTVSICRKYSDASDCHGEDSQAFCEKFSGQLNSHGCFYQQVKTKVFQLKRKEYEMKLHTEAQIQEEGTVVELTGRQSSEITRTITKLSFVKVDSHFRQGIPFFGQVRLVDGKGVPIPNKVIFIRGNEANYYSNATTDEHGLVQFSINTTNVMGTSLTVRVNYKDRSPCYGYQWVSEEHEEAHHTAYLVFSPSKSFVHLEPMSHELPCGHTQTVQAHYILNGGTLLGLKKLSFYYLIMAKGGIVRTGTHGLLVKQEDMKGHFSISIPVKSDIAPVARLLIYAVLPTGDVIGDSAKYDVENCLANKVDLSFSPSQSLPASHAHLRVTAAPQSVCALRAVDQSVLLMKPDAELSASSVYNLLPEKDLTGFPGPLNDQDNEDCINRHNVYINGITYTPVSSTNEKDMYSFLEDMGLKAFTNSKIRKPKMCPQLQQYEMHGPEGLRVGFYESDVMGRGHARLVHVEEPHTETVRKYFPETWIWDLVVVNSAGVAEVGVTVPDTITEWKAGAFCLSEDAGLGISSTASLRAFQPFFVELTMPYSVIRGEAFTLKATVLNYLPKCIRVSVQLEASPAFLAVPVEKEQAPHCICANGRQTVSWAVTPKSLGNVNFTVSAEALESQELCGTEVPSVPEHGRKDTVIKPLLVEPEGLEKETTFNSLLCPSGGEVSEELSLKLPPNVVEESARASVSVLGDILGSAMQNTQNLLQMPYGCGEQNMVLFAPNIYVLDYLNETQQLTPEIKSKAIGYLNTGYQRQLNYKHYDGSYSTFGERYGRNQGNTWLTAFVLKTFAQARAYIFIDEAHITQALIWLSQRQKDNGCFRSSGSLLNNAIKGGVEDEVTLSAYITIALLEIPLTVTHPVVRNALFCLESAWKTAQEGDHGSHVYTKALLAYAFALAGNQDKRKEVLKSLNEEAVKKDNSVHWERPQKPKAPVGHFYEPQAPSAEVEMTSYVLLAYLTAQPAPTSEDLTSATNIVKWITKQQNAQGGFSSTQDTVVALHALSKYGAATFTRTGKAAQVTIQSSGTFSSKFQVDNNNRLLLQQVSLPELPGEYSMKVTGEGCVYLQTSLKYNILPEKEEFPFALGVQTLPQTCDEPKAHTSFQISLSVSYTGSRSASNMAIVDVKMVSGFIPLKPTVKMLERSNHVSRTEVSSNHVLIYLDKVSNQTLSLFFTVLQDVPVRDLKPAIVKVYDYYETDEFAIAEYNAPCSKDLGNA", "assay": "competition binding assay with immobilized alpha-2 macroglobulin and labeled and unlabeled TDF-1", "settings": "immobilized alpha-2 macroglobulin", "description": "This N-terminal portion of the protein, which is not part of the crystal structure, is positively charged and likely is highly flexible in solution."}, "alpha-2 macroglobulin [2]": {"target": "alpha-2 macroglobulin", "assay": "competition binding assay, immobilized alpha-2 macroglobulin"}, "[3]": {"assay": "solubility by comparing the partition coefficient of mutein versus wild type hTDF-1 dimer", "type": "physicochemical", "settings": "partition coefficient comparison, surmised result", "description": "The resulting candidate morphogen analogs can be produced using conventional site-directed mutagenesis methodologies, and the effect of the site-directed modification on the solubility of the hTDF-1 dimer can be measured, for example, by comparing the partition coefficient or “salting out properties” of the modified hTDF-1 dimer versus the native hTDF-1 dimer. See, for example, Scopes (1987) in Protein Purification: Principles and Practice, 2nd Edition (Springer-Verlag); and Englard et al. (1990) Meth. Enzymol. 182: 285-300, both incorporated herein by reference.\nThe enhanced solubility of the resulting morphogen analog is measured by comparing the partition coefficient of the Ala 63->Ser 63 mutein versus wild type hTDF-1 dimer. […] It is contemplated that additional muteins having multiple hydrophobic to hydrophilic substitutions can be produced and characterized using the protocols described in this Example. The biological activity of the resulting morphogen analogs can be determined using one or more of the TDF-1 activity assays described Example 1."}}, "data": [{"molecule": "Alpha-2 macroglobulin: protease scavenging protein known to bind proteins in serum and target them to the kidney for clearance", "values": [{"measurement": "interference with TDF-1's ability to stimulate alkaline phosphatase activity", "setting": "ROS cells", "value": "not to interfere"}]}, {"molecule": "TDF-1: tissue morphogenic protein Transformation and Differentiation Factor-1, SEQ ID NO:1", "values": [{"measurement": "interaction with alpha-2 macroglobulin", "setting": "alpha-2 macroglobulin [1]", "value": "interact specifically"}]}, {"molecule": "truncated mature TDF-1, wherein the first 22 amino acids have been cleaved from the mature form of TDF-1 in a standard trypsin digest (ligand)", "values": [{"measurement": "fold less affinity than TDF-1", "setting": "alpha-2 macroglobulin [2]", "value": 10, "unit": "fold"}]}, {"molecule": "B1", "values": [{"measurement": "solubility versus native hTDF-1", "setting": "[3]", "value": "higher solubility than native hTDF-1"}]}]}
